These results are taken from US20180171029A1 (REGENTS OF THE UNIVERSITY OF MINNESOTA, published 2018).

For experiment [1], the target named is T1, HA-tagged human APOBEC3A (A3A-HA) (human, UniProt P31941 1-199).
T1 construct: Expressed by transient transfection in 293T cells; lysate resolved by SDS-PAGE (denatured) for the immunoblot; not shown: HA tag
The experiment can be described thus: immunoblot of 293T lysates with A3-HA proteins (FIG. 3), hybridoma supernatant. From the text: (§1) Cell lysates from 293T cells transiently transfected with each HA-tagged APOBEC3 protein (A3A-HA, A3B-HA, A3C-HA, A3D-HA, A3F-HA, A3G-HA, A3H-HA) or the expression vector alone were resolved by 12% SDS-PAGE and transferred to PVDF membrane. […] Membranes were further probed with the appropriate secondary antibodies including anti-rabbit IgG IR800CW (Odyssey 926-32211, LI-COR Biosciences, Lincoln, Nebr.) 1/20,000 or anti-mouse IgG IR800CW (Odyssey 827-08364, LI-COR Biosciences, Lincoln, Nebr.) 1/20,000 in 50% Blok (WBAVDP001, Millipore, Darmstadt, Germany) in PBS-T, (PBS, 0.1% Tween-20) and images were generated using LI-COR imaging (LI-COR Biosciences, Lincoln, Nebr.).
(A western blot detects proteins with antibodies after separation by electrophoresis.)

Experiment [2] concerns the target T2, HA-tagged human APOBEC3B (A3B-HA) (human, UniProt Q9UH17 1-382).
T2 construct: Expressed by transient transfection in 293T cells; lysate resolved by SDS-PAGE (denatured) for the immunoblot; not shown: HA tag
The experiment can be described thus: hybridoma screening (ELISA-positive clones, then immunoblot of A3-HA lysates and immunofluorescence). In general terms: In an ELISA, binding on a coated surface is turned into a signal by an enzyme label.

Experiment [3] deals with T2, HA-tagged human APOBEC3B (A3B-HA). The experiment can be described thus: immunoblot of 293T lysates with A3-HA proteins (FIG. 3), hybridoma supernatant.
Source text: as §1

Experiment [4] addresses T3, endogenous human APOBEC3B (A3B) of cancer cell lines (human, UniProt Q9UH17 1-382).
T3 construct: whole, on cells; Untagged endogenous, intracellular protein: detected in fixed and permeabilised cells (immunofluorescence, flow cytometry) and in cell lysates (immunoblot); also called endogenous A3B
The experiment can be described thus: intracellular flow cytometry, OVCAR5 and MDA-MB-468 cells with control or A3B shRNA. As to the method: OVCAR5 (Monks et al., 1991, J. Natl. Cancer Inst. 83:757-766) and MDA-MB-468 (ATCC HTB-132, ATCC, Manassas, Va.) cells were transduced with lentiviruses encoding either a control or A3B-specific shRNA. Following drug selection (puromycin), cells were fixed in 1% paraformaldehyde and permeabilized in cold methanol. […] After a single PBS wash to remove unbound antibody, cells were analyzed on a flow cytometer.

T2 sequence (Q9UH17 whole entry): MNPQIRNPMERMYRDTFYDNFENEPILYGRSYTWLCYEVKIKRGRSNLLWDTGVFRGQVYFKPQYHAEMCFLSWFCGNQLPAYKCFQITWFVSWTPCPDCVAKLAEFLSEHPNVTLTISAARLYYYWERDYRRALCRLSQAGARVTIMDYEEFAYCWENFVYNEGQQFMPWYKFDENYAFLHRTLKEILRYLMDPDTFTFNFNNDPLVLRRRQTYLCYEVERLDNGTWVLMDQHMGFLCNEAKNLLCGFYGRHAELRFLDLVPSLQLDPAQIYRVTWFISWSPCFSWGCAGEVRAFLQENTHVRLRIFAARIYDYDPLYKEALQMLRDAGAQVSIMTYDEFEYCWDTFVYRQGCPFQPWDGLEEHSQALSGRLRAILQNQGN
T1 sequence (P31941 whole entry): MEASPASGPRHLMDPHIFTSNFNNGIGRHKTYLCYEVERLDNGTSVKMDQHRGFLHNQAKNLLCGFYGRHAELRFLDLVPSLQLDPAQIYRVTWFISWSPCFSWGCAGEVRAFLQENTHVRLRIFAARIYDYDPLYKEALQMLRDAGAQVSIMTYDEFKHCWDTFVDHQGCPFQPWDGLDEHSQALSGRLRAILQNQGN
T3 sequence (Q9UH17 whole entry): as the sequence (Q9UH17 whole entry) above

B1: monoclonal antibody produced by hybridoma cell line 5210-08-15 (antibody, V domains shown)
VH: QEQLEESGGGLVKPGGTLTLTCKASGFSFSDGYWMCWIRQAPGKGLEWIGCIYDASGGAYFPSWAKGRFTISKTSSTTVTLEMTSLTDADTAIYFCVKTDYGSSKLWGPGTLVTVSS
VL: AVVLTQTASPVSAPVGGTVTINCQASQNIYSNLAWYQQKPGQPPKLLIYGASTLASGVSSRFKGSRSGTEFTLTISDLECADAATYYCQSYVYSSSTADTFGGGTKVVVEV
notes: Rabbit monoclonal antibody, tested as hybridoma culture supernatant; The Ig chain entries come from cDNA and may include a leader peptide; no cleavage site stated
Turning to B1, the binding result in experiment [1] and in experiment [2] was “binds” each time.

B2: monoclonal antibody produced by hybridoma cell line 5210-87-13 (antibody, V domains shown)
VH: QSVKESEGGLFKPTDTLTLTCTVSGFSLSSYRMHWVRQAPGNGLEWIGSISSGGNAAYARWANTRSTITRNTNLNTVTLKMTSLTAADTATYFCGSNVIWGPGTLVTVSS
VL: DPVLTQTPSSVSAAVGGTVTISCQSSESVFKKNWLAWYHQKPGQSPKRLIYGASTLESGAPSRFRGSGSGTQFTLTISDLECGDAATYYCAGAFDGNIYPFGGGTEVVVKG
notes: Rabbit monoclonal antibody; hybridoma supernatant in the screens, mAb preparation in the work on endogenous A3B; The Ig chain entries come from cDNA and may include a leader peptide; no cleavage site stated
As for B2, the binding result in experiment [1], in experiment [3] and in experiment [4] was “binds” in each case.
